B1: TPPP (parent)
chain: LCKDCQVIDGRNVTVTDVDIVFSK
B2: CSNK1G1 (parent)
chain: GSLPWQGLKADTLKERYQKIGDTK

Variants of: B1
Experiment: protein stability index of a GFP-peptide fusion (GPS, HEK-293T) (PSI 1-6); higher = more stable
Conditions: c terminus: a fixed tail appended
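Also: lentivirally expressed fusions sorted by FACS into six bins by GFP to DsRed ratio, PSI derived from sequencing read proportions per bin multiplied by bin number.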

Protein stability index: each site, then its substitutions
C2: Q 4.18; W 2.56; I 2.93; G 3.37; M 3.24; P 4.04; T 3.61; K 3.07; N 3.59; V 3.04; L 3.09; F 2.48; S 3.54; E 4.36; D 4.08; R 2.79; H 3.42; Y 2.75; A 3.56
K3: G 3.34; H 2.52; C 1.89; I 1.05; D 3.3; N 2.95; W 1.49; A 2.51; F 1.65; E 3.21; P 3.26; S 2.17; Q 2.18; R 2.15; L 1.92; M 1.78; T 2.83; Y 1.91
D4: V 1.82; H 1.57; Q 1.97; R 2.73; E 2.71; F 1.93; K 2.31; P 2.25; A 1.76; I 2.02; M 2.1; C 2.35; G 2.42; N 1.69; Y 1.81; L 1.83; T 1.77; S 1.71
C5: S 4.01; R 3.38; L 3.16; Q 3.75; W 2.28; I 2.6; M 2.77; A 3.62; P 4.03; Y 2.94; V 3.36; N 3.66; E 4.32; H 3.82; T 3.35; F 2.54; K 3.84; D 4.39; G 2.98
V7: G 2.59; E 2.94; C 2.4; D 3.64; I 2.33; A 2.61; F 2.33; K 2.46; H 2.44
Q6: R 2.8; P 3.16; T 2.7; L 1.97; N 2.49; H 2.73; V 2.14; D 2.69; Y 2.4; E 2.9; C 2.09; G 2.78; M 2.66; A 2.05; W 2.17; K 2.16; F 1.74; S 2.61
L1: K 3.47; T 2.73; Q 3.08; M 2.26; R 1.57; V 2.71; P 2.85; I 2.01; A 2.54; D 4.05; F 2.25; S 2.91; H 2.7; Y 2.08; E 3.41; W 1.89; N 3.32; C 1.85

Variants of: B2
Experiment: as above
Conditions: c terminus: a fixed tail appended

Protein stability index, by site and new letter:
L13: S 4.62; V 3.7; Y 3.72; T 4.65; R 4.27; W 3.05
Q18: T 4.26; E 4.54; A 4.46; M 3.64; I 3.57; H 4.09; Y 3.74; P 4.66; S 4.35; W 3.34; L 3.91; C 3.76; K 3.62; F 2.91; R 3.96; V 3.64; N 4.11; G 4.09; D 4.47
Y17: K 4.72; F 4.19; W 3.82; D 4.99; V 4.04; S 4.45; A 4.98; G 5.36; L 4.19; I 4.21; Q 4.81; R 4.13; E 5.71; P 4.88; M 4.23; H 5.05; T 4.83; C 4.27; N 4.98
T23: N 3.92; A 4.46; K 4.74; F 3.38; I 3.81; M 3.97; L 3.82; V 4.01; Q 3.96; G 4.34; H 4.08; P 3.91; Y 3.36; W 2.78; D 4.55; E 4.68; R 3.84; C 3.4; S 4.53
R16: D 4.54; Y 4.01; L 4.11; Q 4.44; M 4.11; I 3.26; A 4.29; K 4.23; P 4.37; G 4.89; S 4.71; C 4.29; N 4.68; V 4.25; F 3.98; E 4.69; T 4.07; H 4.35; W 2.99
K14: L 3.1; S 3.88; H 4.37; D 4.02; P 4.41; V 4.14; G 3.08; F 3.13; Q 3.52; I 3.75; C 3.81; T 4.09; E 4.23; N 4.58; Y 3.37; A 4.55; M 3.36; W 2.74; R 3.8
K24: E 4.88; G 3.79; M 3.19; I 3.53; A 4.01; S 3.79; Q 4.07; D 3.25; P 4.2; T 4.08; L 3.3; W 2.95; R 3.72; C 3.4; N 3.91; H 3.6; F 3; Y 2.63; V 3.39
G21: L 4; H 4.15; Y 3.74; V 3.64; A 3.59; R 4.16; K 4.71; M 3.87; C 3.29; F 3.42; W 3.01; I 3.41; E 4.37; D 4.57; Q 4.44; N 3.86; S 4.3; T 3.83; P 4.62
D22: P 3.7; S 4.05; T 3.52; G 3.74; W 2.64; E 3.91; Q 3.82; N 3.2; C 3.81; K 3.56; R 3.43; F 3; H 3.75; I 3.41; A 3.06; L 3.32; V 3.65; M 3; Y 2.98
K19: W 2.83; V 3.83; P 3.95; F 3.05; D 4.67; Y 3.86; E 4.45; S 3.95; M 3.68; C 3.56; N 4.35; G 4.17; I 3.54; T 4.3; H 4.24; A 3.94; L 3.74; Q 4.8; R 3.75
E15: M 3.51; R 3.98; N 3.39; A 3.74; D 4.25; C 3.37; P 3.97; G 4.07; Y 3.1; Q 4.09; S 3.47; L 3.66; W 2.77; H 3.43; T 3.93; F 3.56; I 3.26; K 3.29; V 3.31
I20: S 4.65; M 4.53; V 4.3; K 4.33; W 3.62; Y 4.29; R 4.2; N 4.62; Q 4.36; G 5; C 4.35; E 5.24; H 4.47; P 4.75; D 4.86; L 3.86; F 4.26; A 4.67; T 4.46
